# Source: patent US20220072101A1, “HARNESSING INFLAMMATION TO TREAT NEURODEVELOPMENTAL DISORDERS” (President and Fellows of Harvard College, priority 2019, published 2022)
# “Also recorded” adds a separate entry of the source. Counter-ions that a name gives are not always drawn.
# Key:
# Type in all cases: in vivo, mouse
# [1] = system: MIA offspring; assay: Three-chamber social approach assay in PBS and MIA offspring; conditions: for sociability phenotype after IL-17a into S1DZ: MIA offspring, IL-17a 50 ng/side bilaterally into S1DZ, 4 hours, no LPS
# Protocol: Adult male mice were assayed for sociability using a three-chamber social approach assay. The arena was constructed of white acrylic (50 cm×35 cm×30 cm). Wire cups (Spectrum Diversified®) were placed in the back left and right corner of the arena beneath water-filled 1 L bottles (Nalgene®). On Day 0, mice were habituated to the arena for 10 min. Immediately following habituation, mice were singly housed. On Day 1 (Pre), mice were placed in the center of the arena and allowed to freely explore. Following 10 min, mice were confined to the center of the arena. An inanimate object (rubber stopper) or a male conspecific were placed beneath the wire cups. Placement of the inanimate object and social target were alternated. Mice were then allowed to freely explore the arena for 10 min. Interaction time was defined as time spent in the areas circumscribing the wire cups (<2 cm). Sociability was defined as interaction time with the social target divided by total interaction time and expressed as a percentage. For experiments involving LPS injections, mice were injected with LPS ([…], i.p., L2630, Sigma) on Day 2 (Test), four hours prior to testing. […]
# Adult male mice were implanted with cannula into S1DZ and allowed to recover for >2 weeks prior to behavioral experiments. On Day 1 (Pre) mice were assayed for sociability. On Day 2 (Test), mice were anesthetized briefly using isoflurane and either vehicle or IL-17a (50 ng/side in 1 μl at a rate of 180 nl/min, 7956-ML/CF, R&D®) was administered bilaterally into S1DZ through 250 μm-projecting injector tips (PlasticsOne®). Four hours after vehicle or IL-17a administration, mice were assayed for sociability. Cannula placements were verified using histology.
# (§1) Adult male mice were assayed for sociability using a three-chamber social approach assay. The arena was constructed of white acrylic (50 cm×35 cm×30 cm). Wire cups (Spectrum Diversified®) were placed in the back left and right corner of the arena beneath water-filled 1 L bottles (Nalgene®). On day 0, mice were habituated to the arena for 10 min. Immediately following habituation, mice were singly housed. On day 1 (Pre), mice were placed in the center of the arena and allowed to freely explore. Following 10 min, mice were confined to the center of the arena. An inanimate object (rubber stopper) or a male conspecific were placed beneath the wire cups. Placement of the inanimate object and social target were alternated. Mice were then allowed to freely explore the arena for 10 min. Interaction time was defined as time spent in the areas circumscribing the wire cups (<2 cm). Sociability was defined as interaction time with the social target divided by total interaction time and expressed as a percentage. For experiments involving LPS injections, mice were injected with either saline (Veh) or LPS ([…], i.p., L2630, Sigma) on day 2 (Test), four hours prior to testing. For the experiment assaying sociability 72 hrs following LPS injection, mice used for 4 hr LPS sociability experiments were tested for sociability again at 72 hrs.
# Adult male Vgat-Cre MIA offspring were bilaterally injected with virus encoding the inhibitory DREADD receptor fused to mCherry into the vLPO. Following >3 weeks of recovery, mice were assayed on the three-chamber social approach assay outlined above. Baseline sociability was assayed on day 1 (Pre). On day 2 and day 3, mice were injected with either Saline (Veh) or CNO (1.5 mg/kg i.p., BML-NS105, Enzo Life Sciences®), two hours prior to initiation of behavior. Injection order was counterbalanced. Following behavioral experiments, post-mortem histology was used to confirm mCherry expression within the vLPO. For experiments assaying the effect of CNO and LPS injection in Vgat-Cre PBS and MIA offspring that have not undergone surgery, baseline sociability was assessed on day 1. On day 2 and 3 mice received counterbalanced injections of CNO or vehicle. On day 4, mice were injected with LPS. […]
# [2] = system: IL-17a, IFNγ, IL-6, TNFα; assay: ELISA of cytokines in plasma and brain lysate; conditions: LPS-injected MIA offspring; antibiotic by oral gavage
# Protocol: Mice were put under general anesthesia by intraperitoneal injection of Ketamine (100 mg/kg, i.p.) and xylazine (10 mg/kg, i.p.). Blood was collected by retro-orbital puncture, using clean heparinized microhematocrit capillary tubes (Fisher Scientific®). Once the tube was withdrawn, slight pressure was applied on the eyelid with gauze to prevent further bleeding. All blood samples were centrifuged at 15,000 g for 3 min at room temperature. For quantification of cytokines in brain lysate, samples were disrupted in cold lysis buffer with protease inhibitor cocktail for 60 seconds using the Micro-Homogenizer (VWR International) and centrifuged for 30 min at 15,000×g to remove insoluble precipitates. All samples were stored at −80° C. until further analysis. Plasma and brain lysate cytokines concentrations were measured using an ELISA kit (Biolgened™), following the manufacturer's instructions.
# After four hours of vehicle or LPS administration, mice were anesthetized by intraperitoneal injection of fatal plus (100 mg/kg). All blood samples were centrifuged at 10,000 g for 10 min at 4 C. All samples were stored at −80° C. until further analysis. Cytokines concentrations in plasma were measured using an ELISA kit (IFN-γ; 430804, TNF-α; 430904, IL-6; 431304, IL-17a; 432504, Biolegend®), following the manufacturer's instructions.
# [3] = system: segmented filamentous bacteria (SFB); assay: SFB levels by 16S rRNA qPCR of fecal pellets and SEM of ileum after antibiotics; conditions: Taconic-derived mice; vancomycin 2.5 mg/kg or metronidazole 10 mg/kg orally every two days
# Protocol: For SFB-gavaging experiments, four fecal pellets of SFB mono-colonized mice were dissolved in 20 ml sterile PBS and filtered through a 100-μm cell strainer. 200 μl of fecal suspensions were gavaged via oral route into 8 to 9-week-old male cross-fostered mice. Control mice were gavaged with PBS. The SFB colonization was tested on day 7 following SFB-gavaging. For antibiotics treatments, Taconic-derived male mice were orally gavaged with vancomycin hydrochloride (Fisher) (2.5 mg/kg) or metronidazole (10 mg/kg) (Sigma Aldrich®) every two days, starting 21 days before behavioral test. Mouse fecal pellets were collected and stored at −80° C. before and after vancomycin and metronidazole treatments.
# Bacterial genomic DNA was isolated from the fecal pellets of mice with phenol-chloroform extraction. qPCR was performed to quantify relative abundance of segmented filamentous bacteria (SFB). […] Data were analysed using Roche (Lightcylcler^R 96 SW1.1) Software and the relative quantification (fold) of SFB DNA was performed using the ΔΔCt method.
# Terminal ileum tissues from mice (8-10 weeks old) were cut open and fixed with 2.5% glutaraldehyde in 0.1 M cacodylate buffer (pH 7.4) overnight and processed for standard scanning electron microscopy. All samples were analysed on a Hitachi S-4800 Type II Field Emission Scanning Electron Microscope™.
# [4] = system: Cntnap2, Fmr1, and Shank3 mutant mice; assay: Three-chamber social approach assay in monogenic mutant mice; conditions: Cntnap2 and Fmr1 (monogenic) mutant mice, IL-17a 50 ng/side bilaterally into S1DZ, 4 hours
# Protocol: All experiments were performed according to Guide for the Care and Use of Laboratory Animals and were approved by the National Institutes of Health and the Committee on Animal Care at Massachusetts Institute of Technology. C57BL/6 were purchased from Taconic Biosciences for generating PBS and MIA offspring. Vgat-Cre (028862) were purchased from Jackson Laboratories and inbred. For monogenic experiments, C57BL/6, Cntnap2 (017482), Fmr1 (003025), and Shank3 (017688) mice were purchased from Jackson Laboratories and inbred after colonizing with SFB from donor mice. IL-17Ra^fl/fl and IL-17RaKO were previously described^24,25. All mice were males aged 2-5 months, unless otherwise specified.
# as §1, with “hrs. […]” for “hrs.”
molecule,measurement,setting,value
"CN[C@H](CC(C)C)C(=O)N[C@H]1C(=O)N[C@@H](CC(N)=O)C(=O)N[C@H]2C(=O)N[C@H]3C(=O)N[C@H](C(=O)N[C@H](C(=O)O)c4cc(O)cc(O)c4-c4cc3ccc4O)[C@H](O)c3ccc(c(Cl)c3)Oc3cc2cc(c3O[C@@H]2O[C@H](CO)[C@@H](O)[C@H](O)[C@H]2O[C@H]2C[C@](C)(N)[C@H](O)[C@H](C)O2)Oc2ccc(cc2Cl)[C@H]1O [vancomycin, vancomycin hydrochloride]",LPS-induced reversal of the sociability phenotype after antibiotic pretreatment,"[1]; LPS-injected MIA offspring, antibiotic by oral gavage every two days from 21 days before test",prevented the reversal of the sociability phenotype
same,LPS-induced increase in plasma and brain IL-17a and plasma IFNγ after antibiotic pretreatment,[2],suppressed the systemic increase in plasma and brain levels of IL-17a as well as the plasma levels of IFNγ
same,intestinal colonization by SFB (qPCR of fecal samples),[3],severely reduced
C[N+]1([O-])CCN(C2=Nc3cc(Cl)ccc3Nc3ccccc32)CC1 [CNO],sociability in MIA Vgat-Cre mice,"[1]; Vgat-Cre MIA offspring without surgery, CNO 1.5 mg/kg i.p. or LPS",unaffected by CNO treatment
"recombinant IL-17a: recombinant IL-17a protein (7956-ML/CF, R&D) administered bilaterally into S1DZ (protein) AAIIPQSSACPNTEAKDFLQNVKVNLKVFNSLGAKVSSRRPSDYLNRSTSPWTLHRNEDPDRYPSVIWEAQCRHQRCVNAEGKLDHHMNSVLIQQEILVLKREPESCPFTFRVEKMLVGVGCTCVASIVRQAA",sociability phenotype after IL-17a into S1DZ,[1],sufficient to promote sociability in monogenic mutant mice as well as in MIA offspring; also recorded: sufficient to rescue the sociability phenotypes of not only MIA offspring
same,sociability phenotype after IL-17a into S1DZ,[1]; listed as IL-17a,sufficient to rescue sociability deficits in MIA offspring; also recorded: rescues sociability deficits in both MIA offspring and monogenic mutant mice
same,sociability phenotype after IL-17a into S1DZ,[1]; listed as exogenous IL-17a,rescued sociability deficits
same,sociability phenotype after IL-17a into S1DZ,[1]; listed as recombinant IL-17a protein,sufficient to rescue the sociability phenotype of MIA offspring
same,sociability phenotype after IL-17a into S1DZ,[4],sufficient to promote sociability in monogenic mutant mice
same,sociability phenotype after IL-17a into S1DZ,[4]; listed as IL-17a,rescues sociability deficits in both MIA offspring and monogenic mutant mice
